From article PMC6018003

Legend:
[1] = molecular target: T1, H46R/H48Q/C146S Sod1 labeled with Alexa-546 at C57 (yeast); experiment: other fluorescence titration; microplate, quenching of Alexa-546-labeled Sod1 on titration with Ccs1; Sod1 zinc bound and disulfide reduced (E, Zn-Sod1^SH); 20 mM Tris pH 7.5, 150 mM NaCl, 1 mM TCEP, 0.01% octyl glucoside and CHAPS
T1 sequence (P00445 2-154 with H46R H48Q C146S, looked up): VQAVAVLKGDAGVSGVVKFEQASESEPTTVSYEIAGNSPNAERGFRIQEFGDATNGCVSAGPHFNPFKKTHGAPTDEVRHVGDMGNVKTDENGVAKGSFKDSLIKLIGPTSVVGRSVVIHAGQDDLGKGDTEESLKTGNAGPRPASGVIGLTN

[2] = molecular target: T1, H46R/H48Q/C146S Sod1 labeled with Alexa-546 at C57 (yeast); experiment: as above; remark: listed apart in the source
[3] = molecular target: T1, H46R/H48Q/C146S Sod1 labeled with Alexa-546 at C57 (yeast); experiment: other fluorescence titration; microplate, quenching of Alexa-546-labeled Sod1 on titration with Ccs1; Sod1 metal deficient and disulfide reduced (E, E-Sod1^SH); 20 mM Tris pH 7.5, 150 mM NaCl, 1 mM TCEP, 0.01% octyl glucoside and CHAPS
[4] = molecular target: T1, H46R/H48Q/C146S Sod1 labeled with Alexa-546 at C57 (yeast); experiment: as above; remark: listed apart in the source

B1: copper chaperone for Sod1 (Ccs1), full-length wild type (natural protein)
chain: GHMTTNDTYEATYAIPMHCENCVNDIKACLKNVPGINSLNFDIEQQIMSVESSVAPSTIINTLRNCGKDAIIRGAGKPNSSAVAILETFQKYTIDQKKDTAVRGLARIVQVGENKTLFDITVNGVPEAGNYHASIHEKGDVSKGVESTGKVWHKFDEPIECFNESDLGKNLYSGKTFLSAPLPTWQLIGRSFVISKSLNHPENEPSSVKDYSFLGVIARSAGVWENNKQVCACTGKTVWEERKDALANNIK
- Kd [1]: 114 nM
- Kd [2]: 134 nM
- Kd [3]: 36 nM
- Kd [4]: 34 nM
